In patent publication US20230104769A1 (MABWELL SHANGHAI BIOSCIENCE, published 2023):
One block for each binder: values may come before it.

How the values were obtained:
[1] = molecular target: T1, recombinant human PD-1 protein (NCBI accession No.: NP_005009.2, 21aa-167aa) (human, UniProt Q15116 21-167); experiment: BLI Octet QKe, antibody on the sensor, single 100 nM PD-1
T1 construct: range 21-167; also called recombinant human PD-1 extracellular domain protein; PD-1-ECD
Experimental: Determination of the binding kinetics: the affinity of the antibody was determined with Octet QKe system from Fortebio using an assay of capturing biotin-labeled antibody with streptavidin. […] Both the binding and dissociating were conducted for 300 s.
The comparison of affinity between the variant antibodies and the parent antibody was performed using Octet QKe system supplied by Fortebio.

[2] = molecular target: T2, mouse PD-1 (Cat: 50124-M08H, Sino Biological Inc.) (mouse, UniProt Q02242 25-167); experiment: ELISA, plate coated with the PD-1 protein at 1 µg/mL, hybridoma supernatant diluted 100 times
T2 construct: Bought recombinant protein; also called recombinant mouse PD-1
T2 sequence (looked up): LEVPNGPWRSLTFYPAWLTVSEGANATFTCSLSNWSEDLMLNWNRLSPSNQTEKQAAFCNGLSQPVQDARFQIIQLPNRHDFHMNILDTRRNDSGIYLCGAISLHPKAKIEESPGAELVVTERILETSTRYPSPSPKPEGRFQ
Experimental: (§1) A plate was coated with recombinant human PD-1/His protein (NCBI accession No.: NP_005009.2, 21aa-167aa, Lot: 2016.2.22), cynomolgus monkey PD-1 (Cat: 90311-C08H, Sino Biological Inc.), rat PD-1 (Cat: 80448-R08H, Sino Biological Inc.) and mouse PD-1 (Cat: 50124-M08H, Sino Biological Inc.) in a concentration of 1 μg/mL overnight at 4° C., washed three times with PBS subsequently, and 5% BSA-PBS was added for blocking for 60 min at 37° C. The plate was washed three times with PBST afterwards, and supernatants of the hybridiomas diluted 100 times were added and incubated for 60 min at 37° C. Again, the plate was washed four times with PBST, HRP-Goat anti-mouse IgG (Fcγ) (Cat: 115-035-071, Jackson Immuno Research) with a dilution of 1:5000 was added for a 30 min incubation at 37° C. Once again, the plate was washed four times with PBST, and TMB substrate was added for developing color through incubating for 10 min at 37° C., then the reaction was terminated by adding 2 M HCl. With 630 nm as reference wavelength, the absorbance at 450 nm (A450 nm-630 nm) of each well in the plate was read and recorded.

[3] = molecular target: T3, rat PD-1 (Cat: 80448-R08H, Sino Biological Inc.) (rat, UniProt D3ZIN8 25-169); experiment: as above
T3 construct: Bought recombinant protein; also called recombinant rat PD-1; not shown: The vendor's tag
T3 sequence: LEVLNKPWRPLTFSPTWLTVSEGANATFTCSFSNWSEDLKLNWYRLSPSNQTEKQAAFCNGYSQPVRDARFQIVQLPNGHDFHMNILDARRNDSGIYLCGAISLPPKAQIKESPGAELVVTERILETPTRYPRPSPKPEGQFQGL
Experimental: as §1

[4] = molecular target: T4, cynomolgus monkey PD-1 (Cat: 90311-C08H, Sino Biological Inc.) (cynomolgus monkey, UniProt B0LAJ3 25-170); experiment: as above
T4 construct: Bought recombinant protein; not shown: The vendor's tag
Experimental: as §1

[5] = molecular target: T5, recombinant human PD-1/His protein (NCBI accession No.: NP_005009.2, 21aa-167aa, Lot: 2016.2.22) (human, UniProt Q15116 21-167); experiment: BLI (Fortebio BLITZ), antibody captured on AHC sensor, PD-1-His in solution
T5 construct: range 21-167; also called recombinant human PD-1 extracellular domain protein; not shown: His tag
Experimental: The light chain variable region gene and heavy chain variable region gene of the monoclonal antibody obtained through cloning, with cleavage sites of restriction enzymes introduced by PCR using the following primers (Table 3), were respectively cloned into the upstream of gene encoding human-kappa light chain constant region and the upstream of gene encoding the human IgG4 heavy chain constant region carried in eukaryotic expression vectors. […] The affinity of the antibody was determined by the anti-human antibody capture assay with Fortebio (BLITZ pro1.1.0.28). For the determination, anti-Human IgG Fc Capture (AHC) biosensors were soaked in PBS for 10 min. […] Subsequently, the AHC biosensors were reacted with the diluted recombinant human PD-1-His protein (NCBI accession No.: NP_005009.2, 21aa-167aa, Lot: 2016.2.22) of different concentrations (1 μM, 0.6 μM and 0 nM) for binding for 45 s, and was then transferred into PBS for dissociating for 120 s.

T1 sequence (Q15116 21-167 limits assumed, form in doubt): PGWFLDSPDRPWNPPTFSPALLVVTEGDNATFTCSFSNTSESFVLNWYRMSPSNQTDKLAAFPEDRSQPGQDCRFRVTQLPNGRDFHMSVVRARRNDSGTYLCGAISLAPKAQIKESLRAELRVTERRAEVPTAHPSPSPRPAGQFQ
T5 sequence (Q15116 21-167 limits assumed, form in doubt): as above
T4 sequence (B0LAJ3 entry or part of it C08H C08H limits assumed): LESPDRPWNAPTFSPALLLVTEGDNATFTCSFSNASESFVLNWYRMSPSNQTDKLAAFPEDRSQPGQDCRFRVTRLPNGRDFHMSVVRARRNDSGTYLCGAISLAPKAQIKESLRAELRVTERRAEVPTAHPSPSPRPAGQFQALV

B1: h317 variant antibody, light chain W96Y (antibody, V domains shown)
VH: EVQLVESGGGLVKPGGSLRLSCAASGFTFSSYDMSWVRQAPGKGLEWVATISGGGSYTYYPDSVKGRFTISRDNAKNSLYLQMNSLRAEDTAVYYCASPDSSGVAYWGQGTLVTVSS
VL: DIVMTQSPLSLPVTPGEPASITCKASQDVETVVAWYLQKPGQSPRLLIYWASTRHTGVPDRFSGSGSGTDFTLKISRVEAEDVGVYYCQQYSRYPYTFGQGTKL
notes: Variant of h317
Kd [1]: 412 nM

B2: h317 variant antibody, light chain Y91A (antibody, V domains shown)
VH: EVQLVESGGGLVKPGGSLRLSCAASGFTFSSYDMSWVRQAPGKGLEWVATISGGGSYTYYPDSVKGRFTISRDNAKNSLYLQMNSLRAEDTAVYYCASPDSSGVAYWGQGTLVTVSS
VL: DIVMTQSPLSLPVTPGEPASITCKASQDVETVVAWYLQKPGQSPRLLIYWASTRHTGVPDRFSGSGSGTDFTLKISRVEAEDVGVYYCQQASRYPWTFGQGTKL
notes: Variant of h317
Kd [1]: 51.2 nM

B6: chimeric antibody 317 (antibody, V domains shown)
VH: EVKLVESGGGLMKPGGSLKLSCAASGFTFSSYDMSWVRQTPEKRLEWVATISGGGSYTYYPDSVKGRFTISRDNAKNNLYLQMSSLRSEDTALYYCASPDSSGVAYWGQGTLVTVSA
VL: DIVMTQSHKFMSTSVGDRVSITCKASQDVETVVAWYQQKPGQSPKLLIYWASTRHTGVPDRFTGSGSGTDFTLTISNVQSEDLADYFCQQYSRYPWTFGGGTKL
Kd [5]: 2.64 nM
koff [5]: 0.000566 s⁻¹
kon [5]: 215000 M⁻¹ s⁻¹

Continued, in another order:

Kd [1]: 47.6 nM
B3: h317 variant antibody, light chain Y91F (antibody, V domains shown)
VH: EVQLVESGGGLVKPGGSLRLSCAASGFTFSSYDMSWVRQAPGKGLEWVATISGGGSYTYYPDSVKGRFTISRDNAKNSLYLQMNSLRAEDTAVYYCASPDSSGVAYWGQGTLVTVSS
VL: DIVMTQSPLSLPVTPGEPASITCKASQDVETVVAWYLQKPGQSPRLLIYWASTRHTGVPDRFSGSGSGTDFTLKISRVEAEDVGVYYCQQFSRYPWTFGQGTKL
notes: Variant of h317

Kd [1]: 6.81 nM
B4: h317 variant antibody, light chain Y94F (antibody, V domains shown)
VH: EVQLVESGGGLVKPGGSLRLSCAASGFTFSSYDMSWVRQAPGKGLEWVATISGGGSYTYYPDSVKGRFTISRDNAKNSLYLQMNSLRAEDTAVYYCASPDSSGVAYWGQGTLVTVSS
VL: DIVMTQSPLSLPVTPGEPASITCKASQDVETVVAWYLQKPGQSPRLLIYWASTRHTGVPDRFSGSGSGTDFTLKISRVEAEDVGVYYCQQYSRFPWTFGQGTKL
notes: Variant of h317

binding result [4]: binds
B5: Clone 317 (murine antibody 317, hybridoma supernatant) (antibody, mouse IgG1, V domains shown)
VH: EVKLVESGGGLMKPGGSLKLSCAASGFTFSSYDMSWVRQTPEKRLEWVATISGGGSYTYYPDSVKGRFTISRDNAKNNLYLQMSSLRSEDTALYYCASPDSSGVAYWGQGTLVTVSA
VL: DIVMTQSHKFMSTSVGDRVSITCKASQDVETVVAWYQQKPGQSPKLLIYWASTRHTGVPDRFTGSGSGTDFTLTISNVQSEDLADYFCQQYSRYPWTFGGGTKL
notes: tested as hybridoma supernatant
binding result [2]: no binding (tested: single dilution, no concentration shown)
binding result [3]: no binding (tested: single dilution, no concentration shown)
